Assay results taken from patent US20190365892A1 (Biogen, published 2019).

Tests used:
[1] = molecular target: VLA-4 on tumor cell lines (Mec1, JM1, U266, H929, HL60, KG1) (UniProt P13612); assay: flow cytometry on JM1 (CLL) cells
[2] = molecular target: VLA-4 on tumor cell lines (Mec1, JM1, U266, H929, HL60, KG1) (UniProt P13612); assay: flow cytometry on H929 (MM) cells
α4β1 [3] = molecular target: T1, α4β1 (UniProt P13612 34-970; P05556 21-728); assay: competition ELISA; α4β1 preincubated with test mAb, competitor murine HP1/2
T1 construct: The preparation is not described; also called VLA-4; alpha4beta1 integrin

[4] = molecular target: VLA-4 on tumor cell lines (Mec1, JM1, U266, H929, HL60, KG1) (UniProt P13612); assay: flow cytometry on KG1 (AML) cells
[5] = molecular target: VLA-4 on tumor cell lines (Mec1, JM1, U266, H929, HL60, KG1) (UniProt P13612); assay: flow cytometry on U266 (MM) cells
α4β1 [6] = molecular target: T1, α4β1; assay: competition ELISA; mixture of test mAb and mouse HP1/2 (competitor) on α4β1
[7] = molecular target: VLA-4 on tumor cell lines (Mec1, JM1, U266, H929, HL60, KG1) (UniProt P13612); assay: flow cytometry on Mec1 (CLL) cells
[8] = molecular target: VLA-4 on tumor cell lines (Mec1, JM1, U266, H929, HL60, KG1) (UniProt P13612); assay: flow cytometry on HL60 (AML) cells
[9] = molecular target: VLA-4 on tumor cell lines (Mec1, JM1, U266, H929, HL60, KG1) (UniProt P13612); assay: cell-based or functional assay

Molecule: Humanized HP1/2 (HuHP1/2) (antibody)
- EC50 [1]: 0.21 nM
- EC50 [2]: 0.91 nM
- IC50 (α4β1 [3]): 1.05 nM
- EC50 [4]: 0.19 nM
- EC50 [5]: 0.46 nM
- IC50 (α4β1 [6]): 1.41 nM
- EC50 [7]: 0.11 nM
- EC50 [8]: 0.11 nM
- IC50 (nM), inhibition of adhesion of H929 (MM) cells to Fibronectin-coated wells [9]: 0.21 nM
- IC50 (nM), inhibition of adhesion of H929 (MM) cells to VCAM1-Ig-coated wells [9]: 1.35 nM
- IC50 (nM), inhibition of adhesion of HL60 (AML) cells to Fibronectin-coated wells [9]: 0.16 nM
- IC50 (nM), inhibition of adhesion of HL60 (AML) cells to VCAM1-Ig-coated wells [9]: 0.91 nM
- IC50 (nM), inhibition of adhesion of JM1 (CLL) cells to VCAM1-Ig-coated wells [9]: 0.12 nM
- IC50 (nM), inhibition of adhesion of KG1 (AML) cells to Fibronectin-coated wells [9]: 0.05 nM
- IC50 (nM), inhibition of adhesion of KG1 (AML) cells to VCAM1-Ig-coated wells [9]: 0.1 nM
- IC50 (nM), inhibition of adhesion of Mec1 (CLL) cells to Fibronectin-coated wells [9]: 0.1 nM
- IC50 (nM), inhibition of adhesion of Mec1 (CLL) cells to VCAM1-Ig-coated wells [9]: 0.07 nM
- IC50 (nM), inhibition of adhesion of U266 (MM) cells to Fibronectin-coated wells [9]: 0.14 nM
- IC50 (nM), inhibition of adhesion of U266 (MM) cells to VCAM1-Ig-coated wells [9]: 0.13 nM
- antibody concentration giving maximal inhibition of HL60 cell binding to FN and VCAM1-Ig [9]: 20 µg/mL
- antibody concentration giving maximal inhibition of Mec1 cell binding to FN and VCAM1-Ig [9]: 20 µg/mL
- antibody concentration giving maximal inhibition of U266 cell binding to FN and VCAM1-Ig [9]: 20 µg/mL

B1: Chimeric HP1/2 (antibody, V domains shown)
VH: EVQLQQSGAELVKPGASVKLSCTASGFNIKDTYMHWVKQRPEQGLEWIGRIDPASGDTKYDPKFQVKATITADTSSNTAWLQLSSLTSEDTAVYYCADGMWVSTGYALDFWGQGTTVTVSS
VL: SIVMTQTPKFLLVSAGDRVTITCKASQSVTNDVAWYQQKPGQSPKLLIYYASNRYTGVPDRFTGSGYGTDFTFTISTVQAEDLAVYFCQQDYSSPYTFGGGTKLEIK
notes: also called chimerized HP1/2 antibody; chimeric mAb
- IC50 (α4β1 [3]): 1.06 nM
- IC50 (α4β1 [6]): 1.64 nM

B2: H1L0 (antibody, V domains shown)
VH: EVQLVQSGAEVKKPGATVKISCKASGFNIKDTYMHWVQQAPGKGLEWMGRIDPASGDTKYDPKFQVRVTITADTSTDTAYMELSSLRSEDTAVYYCADGMWVSTGYALDFWGQGTLVTVSS
VL: DIVMTQSPDSLAVSLGERATINCKASQSVTNDVAWYQQKPGQPPKLLIYYASNRYTGVPDRFSGSGSGTDFTLTISSLQAEDVAVYYCQQDYSSPYTFGQGTKVEIK
- IC50 (α4β1 [3]): 1.87 nM
- IC50 (α4β1 [6]): 4.46 nM

B3: H1L1 (antibody, V domains shown)
VH: EVQLVQSGAEVKKPGATVKISCKASGFNIKDTYMHWVQQAPGKGLEWMGRIDPASGDTKYDPKFQVRVTITADTSTDTAYMELSSLRSEDTAVYYCADGMWVSTGYALDFWGQGTLVTVSS
VL: SIVMTQSPDSLAVSLGERATINCKASQSVTNDVAWYQQKPGQPPKLLIYYASNRYTGVPDRFSGSGSGTDFTLTISSLQAEDVAVYFCQQDYSSPYTFGQGTKVEIK
- IC50 (α4β1 [3]): 1.67 nM
- IC50 (α4β1 [6]): 4.55 nM

B4: H1L2 (antibody, V domains shown)
VH: EVQLVQSGAEVKKPGATVKISCKASGFNIKDTYMHWVQQAPGKGLEWMGRIDPASGDTKYDPKFQVRVTITADTSTDTAYMELSSLRSEDTAVYYCADGMWVSTGYALDFWGQGTLVTVSS
VL: SIVMTQSPDSLAVSLGERATINCKASQSVTNDVAWYQQKPGQPPKLLIYYASNRYTGVPDRFSGSGYGTDFTLTISSLQAEDVAVYFCQQDYSSPYTFGQGTKVEIK
- IC50 (α4β1 [3]): 0.9 nM
- IC50 (α4β1 [6]): 1.34 nM

B5: H1L3 (antibody, V domains shown)
VH: EVQLVQSGAEVKKPGATVKISCKASGFNIKDTYMHWVQQAPGKGLEWMGRIDPASGDTKYDPKFQVRVTITADTSTDTAYMELSSLRSEDTAVYYCADGMWVSTGYALDFWGQGTLVTVSS
VL: SIVMTQSPDSLAVSLGERATINCKASQSVTNDVAWYQQKPGQPPKLLIYYASNRYTGVPDRFSGSGYGTDFTFTISSLQAEDVATYFCQQDYSSPYTFGQGTKVEIK
- IC50 (α4β1 [3]): 0.49 nM
